We go through 1 protein from PMC6133773.

Substrate in data set [1]: C[C@](O)(CO)[C@H](O)COP(=O)(O)O
The data set is described as follows: Michaelis-Menten kinetics. It counts as biochemical, Escherichia coli. Particulars: Mg2+; CTP active site; natural substrate.

Substrate in data set [2]: C[C@](O)(CO)[C@H](O)C=C(F)P(=O)(O)O
The data set is described as follows: purified protein. Particulars: Mg2+; CTP active site (alternative substrate).

Substrate in data set [3]: C[C@](O)(CO)[C@H](O)C=CP(=O)(O)O
Description: purified protein. Particulars: Mg2+; CTP active site (alternative substrate).

Substrate in data set [4]: C[C@](O)(CO)[C@H](O)CC(F)(F)P(=O)(O)O
The data set is described as follows: purified protein. As to conditions: Mg2+; CTP active site (alternative substrate).

Substrate in data set [5]: C[C@](O)(CO)[C@H](O)CCP(=O)(O)O
The data set is described as follows: purified protein. Particulars: Mg2+; CTP active site (alternative substrate).

Substrate in data set [6]: C[C@](O)(CO)[C@H](O)C[C@H](F)P(=O)(O)O
Description: purified protein. Particulars: Mg2+; CTP active site (alternative substrate).

By Km is commonly meant the substrate concentration at which the rate is half of its maximum. One may read the kcat as the maximal rate divided by the concentration of active sites. A word on the kcat/Km: it is the turnover number divided by the Michaelis constant.

B1: IspD (Escherichia coli K-12) (protein)
chain: ATTHLDVCAVVPAAGFGRRMQTECPKQYLSIGNQTILEHSVHALLAHPRVKRVVIAISPGDSRFAQLPLANHPQITVVDGGDERADSVLAGLKAAGDAQWVLVHDAARPCLHQDDLARLLALSETSRTGGILAAPVRDTMKRAEPGKNAIAHTVDRNGLWHALTPQFFPRELLHDCLTRALNEGATITDEASALEYCGFHPQLVEGRADNIKVTRPEDLALAEFYLTRTIHQENT
Take B1: the Km in data set [1] came to 0.10 ± 0.02 mM; in the data set “purified protein [2]”, 0.7 ± 0.5 mM; in “purified protein [3]” it was 4 ± 1 mM; in “purified protein [4]” it was 1.9 ± 0.7 mM; in the data set “purified protein [5]”, 1.3 ± 0.2 mM; in “purified protein [6]”, 1.0 ± 0.1 mM. Besides, the kcat was determined as 18.2 ± 1 s⁻¹ in data set [1], 0.09 ± 0.01 s⁻¹ in the data set “purified protein [3]”, 0.2 ± 0.0333 s⁻¹ in “purified protein [4]” and 0.217 ± 0.01 s⁻¹ in “purified protein [6]”. For the same protein, the kcat/Km in data set [1] came out at 180000 M⁻¹ s⁻¹; in the data set “purified protein [3]”, 20 M⁻¹ s⁻¹; in the data set “purified protein [4]”, 110 M⁻¹ s⁻¹; in the data set “purified protein [6]”, 220 M⁻¹ s⁻¹.
